Data reported in PMC3326312.

Columns and labels:
[1] = target: T1, core RNA polymerase (wild type);sigma70 (Escherichia coli;Escherichia coli, UniProt P0A7Z4;P0A8V2;P0A8T7;P00579 1-329;1-1342;1-1407;1-613, |); assay: KMnO4 footprinting
[2] = target: T2, core RNA polymerase (wild type) (Escherichia coli, UniProt P0A7Z4;P0A8V2;P0A8T7 1-329;1-1342;1-1407); assay: KMnO4 footprinting
[3] = target: core RNA polymerase (wild type);sigma70 fragment 1-448 (Escherichia coli;Escherichia coli, UniProt P0A7Z4;P0A8V2;P0A8T7;P00579 1-329;1-1342;1-1407;1-448, |); assay: ExoIII footprinting
[4] = target: T2, core RNA polymerase (wild type); assay: ExoIII footprinting
[5] = target: T1, core RNA polymerase (wild type);sigma70; assay: ExoIII footprinting

T2 sequence (P0A7Z4 whole entry, chain 1 of 2, the tested form may be a part): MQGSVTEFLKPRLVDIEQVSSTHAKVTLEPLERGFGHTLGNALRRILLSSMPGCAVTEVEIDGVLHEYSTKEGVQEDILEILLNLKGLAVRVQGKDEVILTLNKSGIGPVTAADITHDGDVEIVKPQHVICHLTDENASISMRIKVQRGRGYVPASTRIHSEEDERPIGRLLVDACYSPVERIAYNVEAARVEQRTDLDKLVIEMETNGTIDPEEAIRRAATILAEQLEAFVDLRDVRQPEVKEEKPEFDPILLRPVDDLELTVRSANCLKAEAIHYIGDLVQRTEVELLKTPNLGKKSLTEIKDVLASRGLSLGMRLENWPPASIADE
T2 sequence (P0A8V2 whole entry, chain 2 of 2, the tested form may be a part): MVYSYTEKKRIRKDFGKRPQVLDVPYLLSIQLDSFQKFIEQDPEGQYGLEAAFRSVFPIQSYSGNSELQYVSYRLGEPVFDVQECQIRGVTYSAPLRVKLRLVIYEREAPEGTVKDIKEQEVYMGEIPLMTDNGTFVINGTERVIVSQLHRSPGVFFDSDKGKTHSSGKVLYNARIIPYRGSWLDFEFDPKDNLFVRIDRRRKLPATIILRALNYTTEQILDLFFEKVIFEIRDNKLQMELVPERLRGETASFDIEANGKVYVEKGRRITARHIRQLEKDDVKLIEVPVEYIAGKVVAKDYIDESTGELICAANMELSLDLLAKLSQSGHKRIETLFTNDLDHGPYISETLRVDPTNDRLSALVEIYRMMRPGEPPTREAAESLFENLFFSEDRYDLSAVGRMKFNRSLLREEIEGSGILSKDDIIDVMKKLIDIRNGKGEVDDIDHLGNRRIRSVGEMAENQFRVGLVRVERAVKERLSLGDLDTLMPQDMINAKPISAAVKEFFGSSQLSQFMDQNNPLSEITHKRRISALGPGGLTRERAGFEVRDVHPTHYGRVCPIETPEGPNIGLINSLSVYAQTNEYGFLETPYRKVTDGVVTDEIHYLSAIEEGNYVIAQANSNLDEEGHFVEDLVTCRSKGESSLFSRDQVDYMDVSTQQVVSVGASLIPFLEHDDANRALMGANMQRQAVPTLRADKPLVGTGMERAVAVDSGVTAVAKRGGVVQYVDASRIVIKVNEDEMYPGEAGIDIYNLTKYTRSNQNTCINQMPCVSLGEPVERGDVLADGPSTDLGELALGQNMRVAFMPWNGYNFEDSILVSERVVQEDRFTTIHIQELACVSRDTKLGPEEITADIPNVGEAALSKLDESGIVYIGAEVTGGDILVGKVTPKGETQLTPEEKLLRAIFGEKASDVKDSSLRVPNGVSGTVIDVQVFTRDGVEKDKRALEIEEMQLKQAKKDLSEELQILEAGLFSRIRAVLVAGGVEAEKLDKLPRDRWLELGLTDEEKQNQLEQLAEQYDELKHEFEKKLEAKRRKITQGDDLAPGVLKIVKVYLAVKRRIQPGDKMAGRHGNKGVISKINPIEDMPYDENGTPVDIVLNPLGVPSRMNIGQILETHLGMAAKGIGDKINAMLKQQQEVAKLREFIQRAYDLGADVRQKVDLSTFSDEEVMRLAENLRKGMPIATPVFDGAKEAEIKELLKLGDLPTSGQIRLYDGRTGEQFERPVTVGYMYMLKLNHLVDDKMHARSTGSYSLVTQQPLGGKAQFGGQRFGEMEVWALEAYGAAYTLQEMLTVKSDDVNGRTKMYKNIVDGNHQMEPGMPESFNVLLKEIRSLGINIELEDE
T1 sequence (P0A7Z4 whole entry, chain 1 of 3): as the sequence (P0A7Z4 whole entry, chain 1 of 2, the tested form may be a part) above
T1 sequence (P0A8V2 whole entry, chain 2 of 3): as the sequence (P0A8V2 whole entry, chain 2 of 2, the tested form may be a part) above
T1 sequence (P00579 whole entry, chain 4 of 3): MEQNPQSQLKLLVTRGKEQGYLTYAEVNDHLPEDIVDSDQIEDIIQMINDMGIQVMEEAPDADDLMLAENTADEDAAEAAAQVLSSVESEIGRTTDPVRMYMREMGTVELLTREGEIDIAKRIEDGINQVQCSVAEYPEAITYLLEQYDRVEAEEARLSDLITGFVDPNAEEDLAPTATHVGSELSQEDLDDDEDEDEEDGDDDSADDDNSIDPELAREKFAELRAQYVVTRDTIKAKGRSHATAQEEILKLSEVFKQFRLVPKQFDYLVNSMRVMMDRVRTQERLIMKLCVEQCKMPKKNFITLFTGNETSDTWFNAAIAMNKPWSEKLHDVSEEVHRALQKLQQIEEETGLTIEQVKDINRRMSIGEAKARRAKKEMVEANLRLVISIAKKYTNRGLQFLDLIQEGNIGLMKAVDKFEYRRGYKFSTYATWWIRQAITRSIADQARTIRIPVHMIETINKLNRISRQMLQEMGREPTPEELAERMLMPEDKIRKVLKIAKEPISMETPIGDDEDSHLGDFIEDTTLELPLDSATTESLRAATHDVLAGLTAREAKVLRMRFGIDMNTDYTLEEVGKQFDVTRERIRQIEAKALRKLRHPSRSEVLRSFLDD

Binder	binding result [1]	binding result [2]	binding result [3]	binding result [4]	binding result [5]
Cons scaffold, 20-mer RNA (mixed) DNA 1: AGGATACTTAGTGCTATAATGAGCGGATCGCATGTTCACACAGGAAACAGCTGATTGCCC DNA 2: GGGCAATCAGCTGTTTCCTGTGTGAACATGCGATCCGCTCATTATAGCACTAAGTATCCT RNA: AUCACGAUAAAUGAGCGGAU	binds	binds			
Cons_up scaffold, 20-mer RNA (mixed) DNA 1: CAGTGAATTCAGGATACTTAGTGCTATAATGAGCGGATCGCATGTTCACACAGGAAACAGCTGATTGCCC DNA 2: GGGCAATCAGCTGTTTCCTGTGTGAACATGCGATCCGCTCATTATAGCACTAAGTATCCTGAATTCACTG RNA: AUCACGAUAAAUGAGCGGAU			binds	binds	binds
